{
  "source": "patent US20220370611",
  "system": "T1, VPF-FRRG(SEQ ID NO: 1)-DOX self-assembled nanoparticles (LT-NPs)",
  "T1 sequence": "FRRG",
  "data": [
    {"substance": "cathepsin B (Cat-B) protease", "values": [
      {"measurement": "cleavage of LT-NPs after enzymatic reaction with cathepsin B (RP-HPLC at 0, 9 and 24 h; fluorescence spectrophotometry)", "value": "the self-assembled nanoparticles (LT-NPs) were cleaved by cathepsin B to release doxorubicin and the photosensitizer"},
      {"measurement": "morphology by transmission electron microscopy after 24 h reaction with cathepsin B (50 ug/mL)", "value": "the self-assembled nanoparticles (LT-NPs) were degraded by cathepsin B present in cancer cells and existed in an activated state"}
    ]}
  ]
}
